Assay results reported in the MegaScale stability set (Tsuboyama et al. 2023).

B1: HHH_rd1_0493 (parent)
chain: RDEDEKEKIKEALKRGNEDKAKEIAKRANVSPEEYERLRKEAE

Variants of: B1
Test: folding stability dG (cDNA display proteolysis); higher = more stable
Details: PBS, room temperature

Variant	folding stability dG
RDEDEKEKINEALKRGNEDKAKEIAKRANVSPEEYERLRKEAE [K10N]	0.92 kcal/mol
RDEDEKEKIIEALKRGNEDKAKEIAKRANVSPEEYERLRKEAE [K10I]	2.8 kcal/mol
RDEDEKEKIWEALKRGNEDKAKEIAKRANVSPEEYERLRKEAE [K10W]	1.57 kcal/mol
RDEDEKEKIHEALKRGNEDKAKEIAKRANVSPEEYERLRKEAE [K10H]	0.938 kcal/mol
RDEDEKEKIAEALKRGNEDKAKEIAKRANVSPEEYERLRKEAE [K10A]	1.09 kcal/mol
RDEDEKEKIFEALKRGNEDKAKEIAKRANVSPEEYERLRKEAE [K10F]	2.11 kcal/mol
RDEDEKEKIREALKRGNEDKAKEIAKRANVSPEEYERLRKEAE [K10R]	2.49 kcal/mol
RDEDEKEKIPEALKRGNEDKAKEIAKRANVSPEEYERLRKEAE [K10P]	0.064 kcal/mol
RDEDEKEKIVEALKRGNEDKAKEIAKRANVSPEEYERLRKEAE [K10V]	2.28 kcal/mol
RDEDEKEKITEALKRGNEDKAKEIAKRANVSPEEYERLRKEAE [K10T]	1.7 kcal/mol
RDEDEKEKIQEALKRGNEDKAKEIAKRANVSPEEYERLRKEAE [K10Q]	0.854 kcal/mol
RDEDEKEKIMEALKRGNEDKAKEIAKRANVSPEEYERLRKEAE [K10M]	2.02 kcal/mol
RDEDEKEKIEEALKRGNEDKAKEIAKRANVSPEEYERLRKEAE [K10E]	0.847 kcal/mol
RDEDEKEKIDEALKRGNEDKAKEIAKRANVSPEEYERLRKEAE [K10D]	0.644 kcal/mol
RDEDEKEKIYEALKRGNEDKAKEIAKRANVSPEEYERLRKEAE [K10Y]	2.01 kcal/mol
RDEDEKEKISEALKRGNEDKAKEIAKRANVSPEEYERLRKEAE [K10S]	1.27 kcal/mol
RDEDEKEKICEALKRGNEDKAKEIAKRANVSPEEYERLRKEAE [K10C]	2.32 kcal/mol
RDEDEKEKIGEALKRGNEDKAKEIAKRANVSPEEYERLRKEAE [K10G]	0.528 kcal/mol
RDEDEKEKILEALKRGNEDKAKEIAKRANVSPEEYERLRKEAE [K10L]	2.79 kcal/mol
RDEDEKEYIKEALKRGNEDKAKEIAKRANVSPEEYERLRKEAE [K8Y]	2.09 kcal/mol
RDEDEKEFIKEALKRGNEDKAKEIAKRANVSPEEYERLRKEAE [K8F]	2.12 kcal/mol
RDEDEKEPIKEALKRGNEDKAKEIAKRANVSPEEYERLRKEAE [K8P]	0.847 kcal/mol
RDEDEKEAIKEALKRGNEDKAKEIAKRANVSPEEYERLRKEAE [K8A]	3.29 kcal/mol
RDEDEKELIKEALKRGNEDKAKEIAKRANVSPEEYERLRKEAE [K8L]	3.06 kcal/mol

Variant	folding stability dG
RDEDEKEMIKEALKRGNEDKAKEIAKRANVSPEEYERLRKEAE [K8M]	3.08 kcal/mol
RDEDEKEDIKEALKRGNEDKAKEIAKRANVSPEEYERLRKEAE [K8D]	2.25 kcal/mol
RDEDEKETIKEALKRGNEDKAKEIAKRANVSPEEYERLRKEAE [K8T]	2.27 kcal/mol
RDEDEKEGIKEALKRGNEDKAKEIAKRANVSPEEYERLRKEAE [K8G]	2.34 kcal/mol
RDEDEKEWIKEALKRGNEDKAKEIAKRANVSPEEYERLRKEAE [K8W]	2.44 kcal/mol
RDEDEKERIKEALKRGNEDKAKEIAKRANVSPEEYERLRKEAE [K8R]	3 kcal/mol
RDEDEKECIKEALKRGNEDKAKEIAKRANVSPEEYERLRKEAE [K8C]	2.37 kcal/mol
RDEDEKEEIKEALKRGNEDKAKEIAKRANVSPEEYERLRKEAE [K8E]	2.66 kcal/mol
RDEDEKENIKEALKRGNEDKAKEIAKRANVSPEEYERLRKEAE [K8N]	2.55 kcal/mol
RDEDEKEHIKEALKRGNEDKAKEIAKRANVSPEEYERLRKEAE [K8H]	2.42 kcal/mol
RDEDEKEQIKEALKRGNEDKAKEIAKRANVSPEEYERLRKEAE [K8Q]	3.15 kcal/mol
RDEDEKEIIKEALKRGNEDKAKEIAKRANVSPEEYERLRKEAE [K8I]	2.1 kcal/mol
RDEDEKESIKEALKRGNEDKAKEIAKRANVSPEEYERLRKEAE [K8S]	2.78 kcal/mol
RDEDEKEVIKEALKRGNEDKAKEIAKRANVSPEEYERLRKEAE [K8V]	1.94 kcal/mol
RDEDEKLKIKEALKRGNEDKAKEIAKRANVSPEEYERLRKEAE [E7L]	3.09 kcal/mol
RDEDEKYKIKEALKRGNEDKAKEIAKRANVSPEEYERLRKEAE [E7Y]	2.85 kcal/mol
RDEDEKDKIKEALKRGNEDKAKEIAKRANVSPEEYERLRKEAE [E7D]	2.7 kcal/mol
RDEDEKSKIKEALKRGNEDKAKEIAKRANVSPEEYERLRKEAE [E7S]	2.92 kcal/mol
RDEDEKIKIKEALKRGNEDKAKEIAKRANVSPEEYERLRKEAE [E7I]	3.06 kcal/mol
RDEDEKPKIKEALKRGNEDKAKEIAKRANVSPEEYERLRKEAE [E7P]	1.58 kcal/mol
RDEDEKKKIKEALKRGNEDKAKEIAKRANVSPEEYERLRKEAE [E7K]	3.1 kcal/mol
RDEDEKQKIKEALKRGNEDKAKEIAKRANVSPEEYERLRKEAE [E7Q]	3.13 kcal/mol
RDEDEKRKIKEALKRGNEDKAKEIAKRANVSPEEYERLRKEAE [E7R]	3.15 kcal/mol
RDEDEKWKIKEALKRGNEDKAKEIAKRANVSPEEYERLRKEAE [E7W]	3.29 kcal/mol

Variant	folding stability dG
RDEDEKMKIKEALKRGNEDKAKEIAKRANVSPEEYERLRKEAE [E7M]	3.12 kcal/mol
RDEDEKTKIKEALKRGNEDKAKEIAKRANVSPEEYERLRKEAE [E7T]	3 kcal/mol
RDEDEKHKIKEALKRGNEDKAKEIAKRANVSPEEYERLRKEAE [E7H]	2.94 kcal/mol
RDEDEKFKIKEALKRGNEDKAKEIAKRANVSPEEYERLRKEAE [E7F]	3 kcal/mol
RDEDEKVKIKEALKRGNEDKAKEIAKRANVSPEEYERLRKEAE [E7V]	2.97 kcal/mol
RDEDEKNKIKEALKRGNEDKAKEIAKRANVSPEEYERLRKEAE [E7N]	2.96 kcal/mol
RDEDEKGKIKEALKRGNEDKAKEIAKRANVSPEEYERLRKEAE [E7G]	2.62 kcal/mol
RDEDEKEKDKEALKRGNEDKAKEIAKRANVSPEEYERLRKEAE [I9D]	0.479 kcal/mol
RDEDEKEKKKEALKRGNEDKAKEIAKRANVSPEEYERLRKEAE [I9K]	0.396 kcal/mol
RDEDEKEKLKEALKRGNEDKAKEIAKRANVSPEEYERLRKEAE [I9L]	2.28 kcal/mol
RDEDEKEKHKEALKRGNEDKAKEIAKRANVSPEEYERLRKEAE [I9H]	0.471 kcal/mol
RDEDEKEKWKEALKRGNEDKAKEIAKRANVSPEEYERLRKEAE [I9W]	0.614 kcal/mol
RDEDEKEKMKEALKRGNEDKAKEIAKRANVSPEEYERLRKEAE [I9M]	1.48 kcal/mol
RDEDEKEKTKEALKRGNEDKAKEIAKRANVSPEEYERLRKEAE [I9T]	0.61 kcal/mol
RDEDEKEKRKEALKRGNEDKAKEIAKRANVSPEEYERLRKEAE [I9R]	0.406 kcal/mol
RDEDEKEKSKEALKRGNEDKAKEIAKRANVSPEEYERLRKEAE [I9S]	0.587 kcal/mol
RDEDEKEKAKEALKRGNEDKAKEIAKRANVSPEEYERLRKEAE [I9A]	0.796 kcal/mol
RDEDEKEKEKEALKRGNEDKAKEIAKRANVSPEEYERLRKEAE [I9E]	0.589 kcal/mol
RDEDEKEKPKEALKRGNEDKAKEIAKRANVSPEEYERLRKEAE [I9P]	0.579 kcal/mol
RDEDEKEKFKEALKRGNEDKAKEIAKRANVSPEEYERLRKEAE [I9F]	0.774 kcal/mol
RDEDEKEKGKEALKRGNEDKAKEIAKRANVSPEEYERLRKEAE [I9G]	0.603 kcal/mol
RDEDEKEKCKEALKRGNEDKAKEIAKRANVSPEEYERLRKEAE [I9C]	1.26 kcal/mol
RDEDEKEKYKEALKRGNEDKAKEIAKRANVSPEEYERLRKEAE [I9Y]	0.577 kcal/mol
RDEDEKEKQKEALKRGNEDKAKEIAKRANVSPEEYERLRKEAE [I9Q]	0.476 kcal/mol

Variant	folding stability dG
RDEDEKEKVKEALKRGNEDKAKEIAKRANVSPEEYERLRKEAE [I9V]	2.09 kcal/mol
RDEDEKEKNKEALKRGNEDKAKEIAKRANVSPEEYERLRKEAE [I9N]	0.856 kcal/mol
RDEDEKEKIKEAEKRGNEDKAKEIAKRANVSPEEYERLRKEAE [L13E]	0.376 kcal/mol
RDEDEKEKIKEAAKRGNEDKAKEIAKRANVSPEEYERLRKEAE [L13A]	0.528 kcal/mol
RDEDEKEKIKEADKRGNEDKAKEIAKRANVSPEEYERLRKEAE [L13D]	0.379 kcal/mol
RDEDEKEKIKEAFKRGNEDKAKEIAKRANVSPEEYERLRKEAE [L13F]	2.85 kcal/mol
RDEDEKEKIKEAGKRGNEDKAKEIAKRANVSPEEYERLRKEAE [L13G]	0.235 kcal/mol
RDEDEKEKIKEACKRGNEDKAKEIAKRANVSPEEYERLRKEAE [L13C]	1.37 kcal/mol
RDEDEKEKIKEYLKRGNEDKAKEIAKRANVSPEEYERLRKEAE [A12Y]	2.88 kcal/mol
RDEDEKEKIKESLKRGNEDKAKEIAKRANVSPEEYERLRKEAE [A12S]	2.15 kcal/mol
RDEDEKEKIKEKLKRGNEDKAKEIAKRANVSPEEYERLRKEAE [A12K]	0.896 kcal/mol
RDEDEKEKIKEFLKRGNEDKAKEIAKRANVSPEEYERLRKEAE [A12F]	2.87 kcal/mol
RDEDEKEKIKECLKRGNEDKAKEIAKRANVSPEEYERLRKEAE [A12C]	1.94 kcal/mol
RDEDEKEKIKEGLKRGNEDKAKEIAKRANVSPEEYERLRKEAE [A12G]	0.656 kcal/mol
RDEDEKEKIKEVLKRGNEDKAKEIAKRANVSPEEYERLRKEAE [A12V]	1.06 kcal/mol
RDEDEKEKIKEELKRGNEDKAKEIAKRANVSPEEYERLRKEAE [A12E]	2.85 kcal/mol
RDEDEKEKIKEPLKRGNEDKAKEIAKRANVSPEEYERLRKEAE [A12P]	0.229 kcal/mol
RDEDEKEKIKEWLKRGNEDKAKEIAKRANVSPEEYERLRKEAE [A12W]	3.01 kcal/mol
RDEDEKEKIKEMLKRGNEDKAKEIAKRANVSPEEYERLRKEAE [A12M]	2.86 kcal/mol
RDEDEKEKIKEQLKRGNEDKAKEIAKRANVSPEEYERLRKEAE [A12Q]	2.69 kcal/mol
RDEDEKEKIKENLKRGNEDKAKEIAKRANVSPEEYERLRKEAE [A12N]	2.1 kcal/mol
RDEDEKEKIKEDLKRGNEDKAKEIAKRANVSPEEYERLRKEAE [A12D]	0.746 kcal/mol
RDEDEKEKIKERLKRGNEDKAKEIAKRANVSPEEYERLRKEAE [A12R]	0.882 kcal/mol
RDEDEKEKIKEILKRGNEDKAKEIAKRANVSPEEYERLRKEAE [A12I]	1.24 kcal/mol

Variant	folding stability dG
RDEDEKEKIKEHLKRGNEDKAKEIAKRANVSPEEYERLRKEAE [A12H]	2.85 kcal/mol
RDEDEKEKIKETLKRGNEDKAKEIAKRANVSPEEYERLRKEAE [A12T]	1.43 kcal/mol
RDEDEKEKIKELLKRGNEDKAKEIAKRANVSPEEYERLRKEAE [A12L]	3.02 kcal/mol
RDEDEKEKIKKALKRGNEDKAKEIAKRANVSPEEYERLRKEAE [E11K]	2.24 kcal/mol
RDEDEKEKIKIALKRGNEDKAKEIAKRANVSPEEYERLRKEAE [E11I]	2.42 kcal/mol
RDEDEKEKIKCALKRGNEDKAKEIAKRANVSPEEYERLRKEAE [E11C]	2.99 kcal/mol
RDEDEKEKIKYALKRGNEDKAKEIAKRANVSPEEYERLRKEAE [E11Y]	1.67 kcal/mol
RDEDEKEKIKTALKRGNEDKAKEIAKRANVSPEEYERLRKEAE [E11T]	2.29 kcal/mol
RDEDEKEKIKNALKRGNEDKAKEIAKRANVSPEEYERLRKEAE [E11N]	2.88 kcal/mol
RDEDEKEKIKLALKRGNEDKAKEIAKRANVSPEEYERLRKEAE [E11L]	2.71 kcal/mol
RDEDEKEKIKAALKRGNEDKAKEIAKRANVSPEEYERLRKEAE [E11A]	2.82 kcal/mol
RDEDEKEKIKVALKRGNEDKAKEIAKRANVSPEEYERLRKEAE [E11V]	2.04 kcal/mol
RDEDEKEKIKQALKRGNEDKAKEIAKRANVSPEEYERLRKEAE [E11Q]	2.83 kcal/mol
RDEDEKEKIKRALKRGNEDKAKEIAKRANVSPEEYERLRKEAE [E11R]	2.54 kcal/mol
RDEDEKEKIKSALKRGNEDKAKEIAKRANVSPEEYERLRKEAE [E11S]	2.58 kcal/mol
RDEDEKEKIKGALKRGNEDKAKEIAKRANVSPEEYERLRKEAE [E11G]	2.34 kcal/mol
RDEDEKEKIKDALKRGNEDKAKEIAKRANVSPEEYERLRKEAE [E11D]	2.96 kcal/mol
RDEDEKEKIKFALKRGNEDKAKEIAKRANVSPEEYERLRKEAE [E11F]	1.56 kcal/mol
RDEDEKEKIKMALKRGNEDKAKEIAKRANVSPEEYERLRKEAE [E11M]	2.67 kcal/mol
RDEDEKEKIKPALKRGNEDKAKEIAKRANVSPEEYERLRKEAE [E11P]	0.82 kcal/mol
RDEDEKEKIKWALKRGNEDKAKEIAKRANVSPEEYERLRKEAE [E11W]	1.91 kcal/mol
RDEDEKEKIKHALKRGNEDKAKEIAKRANVSPEEYERLRKEAE [E11H]	2.38 kcal/mol
